This note sets out measurements from the supplement of paper PMC7125110.

B1: glmS ribozyme (parent)
chain: AUAAAAGCGCCAGAACUACAGAAAUGUAGUUGACGAGGAGGAGGUUUAUCGAAUUUUCGGCGGAUGCCUCCAAA

± gives the standard error. This sample holds only a part of the variants without activity. A value given as a limit tells only on which side of the number the result lay.

The variants in one data set derive from B1. Briefly: self-cleavage kobs at 640 uM GlcN6P; higher = faster cleavage; RNA array. The conditions noted are these: with glucosamine-6-phosphate. An outline of the steps: (§1)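 Using a hybridised Cy3 probe at 37 °C, barcoded ribozyme variants transcribed in situ by E. coli RNA polymerase on sequenced MiSeq chips were monitored across tiles imaged over ~14 h. The flow contained glucosamine-6-phosphate from 40 μM to 10 mM in HEPES/KCl/Mg(OAc)2 buffer. Signals were normalised to baseline and to non-cleaving reference variants before per-tile medians were fit to one- or two-exponential decays to yield kobs. Weighted Michaelis–Menten fits across concentrations gave kcat and KM.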
On to G7C A14C A52U, for which the “self-cleavage kobs at 640 uM GlcN6P” value is below 1e-05 s⁻¹.
Consider A36U C61G C70A, for which the “self-cleavage kobs at 640 uM GlcN6P” value worked out at 0.000101 ± 3e-05 s⁻¹.
With A6G C16A G44U U45A, the “self-cleavage kobs at 640 uM GlcN6P” value is below 1e-05 s⁻¹.
As for G40C G41C C68A, the “self-cleavage kobs at 640 uM GlcN6P” value was below 1e-05 s⁻¹.
Turning to G43U U47C G66U, the “self-cleavage kobs at 640 uM GlcN6P” value is below 1e-05 s⁻¹.
In the case of A39U G40U C67A, the “self-cleavage kobs at 640 uM GlcN6P” value turned out to be 0.000118 ± 2.9e-05 s⁻¹.
With A12G C34G U47C, the “self-cleavage kobs at 640 uM GlcN6P” value was below 1e-05 s⁻¹.
Consider C11U U30C C71A, for which the “self-cleavage kobs at 640 uM GlcN6P” value amounted to 0.000112 ± 2.4e-05 s⁻¹.
Same read-out and setting: the result for G29A U30G A52G reads 7.23e-05 ± 1.9e-05 s⁻¹; that for U31C G32A U65G, 5.75e-05 ± 1.9e-05 s⁻¹.
As for U49A U55C C71G, the “self-cleavage kobs at 640 uM GlcN6P” value is below 1e-05 s⁻¹.
As to A39U A53C U55C, the “self-cleavage kobs at 640 uM GlcN6P” value worked out at 0.000547 ± 9.5e-05 s⁻¹.
On the same count and under the same terms, the result for A6C G9U A52G reads below 1e-05 s⁻¹; that for U49A G59U C71G, below 1e-05 s⁻¹; that for C8G C61U C68U, below 1e-05 s⁻¹.
In the case of C8U U45A A48U C50U, the “self-cleavage kobs at 640 uM GlcN6P” value is below 1e-05 s⁻¹.
Same read-out and setting: the result for G13U U56C G62U reads below 1e-05 s⁻¹; that for C34U G38U G43C, below 1e-05 s⁻¹; that for A12C A33C G40U G63U C68U, below 1e-05 s⁻¹.
On the same count and under the same terms, the result for G35U G40C U49C G51A reads below 1e-05 s⁻¹; that for C10U C61A C67G C71G, 0.000112 ± 3.5e-05 s⁻¹.
For U30G A39G G41U A48G U69C, the “self-cleavage kobs at 640 uM GlcN6P” value was below 1e-05 s⁻¹.
For the variant G40U G43U G51C U65C, the “self-cleavage kobs at 640 uM GlcN6P” value was below 1e-05 s⁻¹.
Still for that read-out and setting: the result for C8U A12U G37U C61A A64U C67G reads 0.000544 ± 0.00022 s⁻¹.
In the case of C34U G43U G59A G62C C67A, the “self-cleavage kobs at 640 uM GlcN6P” value is below 1e-05 s⁻¹.
As to A14C G32C C71U, the “self-cleavage kobs at 640 uM GlcN6P” value worked out at 7.58e-05 ± 2.5e-05 s⁻¹.
For G9C G29A G32A, the “self-cleavage kobs at 640 uM GlcN6P” value was below 1e-05 s⁻¹.
As to A6G A12C G43C, the “self-cleavage kobs at 640 uM GlcN6P” value was below 1e-05 s⁻¹.
As to A15G A48U U54A, the “self-cleavage kobs at 640 uM GlcN6P” value was 0.000159 ± 3.2e-05 s⁻¹.
As for G29C G51U, the “self-cleavage kobs at 640 uM GlcN6P” value is below 1e-05 s⁻¹.
On to A12U A33C G41U G62C, for which the “self-cleavage kobs at 640 uM GlcN6P” value is below 1e-05 s⁻¹.
With G32C G37U G51C, the “self-cleavage kobs at 640 uM GlcN6P” value was below 1e-05 s⁻¹.
For C16G A33U G37U C68G C71U, the “self-cleavage kobs at 640 uM GlcN6P” value is 8.54e-05 ± 3.1e-05 s⁻¹.
Turning to G13U G35U C50U G66C, the “self-cleavage kobs at 640 uM GlcN6P” value is below 1e-05 s⁻¹.
Still for that read-out and setting: the result for C11A A14G G43A U45G reads 4.76e-05 ± 2e-05 s⁻¹; that for A14G G29C A33C, below 1e-05 s⁻¹; that for G9C C34U U49C U65G, below 1e-05 s⁻¹.
Consider A14C C58A C67A C68G, for which the “self-cleavage kobs at 640 uM GlcN6P” value was 5.61e-05 ± 2.2e-05 s⁻¹.
Turning to G7U U54A, the “self-cleavage kobs at 640 uM GlcN6P” value is below 1e-05 s⁻¹.
The same measure, in the same setting: the result for C10U A12G G32A A42U reads below 1e-05 s⁻¹; that for C8G A14U U49G A53U C61U, below 1e-05 s⁻¹; that for U30G G41U C50A, below 1e-05 s⁻¹.
In the case of C10A C16U C67G, the “self-cleavage kobs at 640 uM GlcN6P” value was determined as 0.000345 ± 0.00015 s⁻¹.
With U54A G62A G66C, the “self-cleavage kobs at 640 uM GlcN6P” value was below 1e-05 s⁻¹.
Turning to A42U G51U A52C C70G, the “self-cleavage kobs at 640 uM GlcN6P” value was below 1e-05 s⁻¹.
For C10A C16A G51U A64C, the “self-cleavage kobs at 640 uM GlcN6P” value was below 1e-05 s⁻¹.

A further data set covers variants of B1. Briefly: self-cleavage kobs at 2500 uM GlcN6P; higher = faster cleavage; RNA array. As to conditions: with glucosamine-6-phosphate. An outline of the steps: as §1
Regarding G7C A14C A52U, the “self-cleavage kobs at 2500 uM GlcN6P” value was below 1e-05 s⁻¹.
As for G7A G32U C58U C67U, the “self-cleavage kobs at 2500 uM GlcN6P” value was below 1e-05 s⁻¹.
With A6G C16A G44U U45A, the “self-cleavage kobs at 2500 uM GlcN6P” value was below 1e-05 s⁻¹.
For C16U G35U G62U G63U, the “self-cleavage kobs at 2500 uM GlcN6P” value is below 1e-05 s⁻¹.
In the case of G43A U46C A53G, the “self-cleavage kobs at 2500 uM GlcN6P” value is below 1e-05 s⁻¹.
With U31C C34A G41U U57G G60C, the “self-cleavage kobs at 2500 uM GlcN6P” value is below 1e-05 s⁻¹.
Still for that read-out and setting: the result for A39U G59A A64C reads below 1e-05 s⁻¹.
Regarding A39U G40U C67A, the “self-cleavage kobs at 2500 uM GlcN6P” value was 0.000561 ± 0.00019 s⁻¹.
With G7A A12G G35A, the “self-cleavage kobs at 2500 uM GlcN6P” value was below 1e-05 s⁻¹.
As to C11U U30C C71A, the “self-cleavage kobs at 2500 uM GlcN6P” value amounted to 6.85e-05 ± 2.1e-05 s⁻¹.
For the variant G29A U30G A52G, the “self-cleavage kobs at 2500 uM GlcN6P” value came out at 0.000399 ± 9.4e-05 s⁻¹.
U31C G32A U65G: the “self-cleavage kobs at 2500 uM GlcN6P” value worked out at 0.000133 ± 3.3e-05 s⁻¹.
On to A39U A53C U55C, for which the “self-cleavage kobs at 2500 uM GlcN6P” value was 0.00232 ± 0.00029 s⁻¹.
Consider G7U A39U C50A, for which the “self-cleavage kobs at 2500 uM GlcN6P” value was below 1e-05 s⁻¹.
For G32C A33C G37C A48C C71U, the “self-cleavage kobs at 2500 uM GlcN6P” value was below 1e-05 s⁻¹.
With U47A A53G C70A, the “self-cleavage kobs at 2500 uM GlcN6P” value is 0.000177 ± 4e-05 s⁻¹.
Same read-out and setting: the result for C8G C61U C68U reads below 1e-05 s⁻¹.
Turning to C8U U45A A48U C50U, the “self-cleavage kobs at 2500 uM GlcN6P” value was below 1e-05 s⁻¹.
Regarding G13U U56C G62U, the “self-cleavage kobs at 2500 uM GlcN6P” value was below 1e-05 s⁻¹.
As to G38A C50G A52G, the “self-cleavage kobs at 2500 uM GlcN6P” value was 4.75e-05 ± 1.6e-05 s⁻¹.
As to A39C G59A G62C, the “self-cleavage kobs at 2500 uM GlcN6P” value is below 1e-05 s⁻¹.
As to A12C A33C G40U G63U C68U, the “self-cleavage kobs at 2500 uM GlcN6P” value is below 1e-05 s⁻¹.
On to C10G C34U U46C C70U, for which the “self-cleavage kobs at 2500 uM GlcN6P” value is below 1e-05 s⁻¹.
As to C50A U65G C67A, the “self-cleavage kobs at 2500 uM GlcN6P” value is 8.64e-05 ± 2.2e-05 s⁻¹.
Same read-out and setting: the result for C10U C61A C67G C71G reads 7.34e-05 ± 2.4e-05 s⁻¹; that for G7U U54C C61A, below 1e-05 s⁻¹.
As to U30G A39G G41U A48G U69C, the “self-cleavage kobs at 2500 uM GlcN6P” value is below 1e-05 s⁻¹.
For G7A U31C G35C A42C U46G U54G, the “self-cleavage kobs at 2500 uM GlcN6P” value was below 1e-05 s⁻¹.
In the case of G35A C50U, the “self-cleavage kobs at 2500 uM GlcN6P” value was 2.72e-05 ± 1.2e-05 s⁻¹.
Same read-out and setting: the result for C34U G43U G59A G62C C67A reads below 1e-05 s⁻¹; that for C11G A12C A48C, below 1e-05 s⁻¹.
The same measure, in the same setting: the result for A14C G32C C71U reads 0.000118 ± 2.6e-05 s⁻¹; that for G9C G29A G32A, below 1e-05 s⁻¹.
A6G A12C G43C: the “self-cleavage kobs at 2500 uM GlcN6P” value was below 1e-05 s⁻¹.
For the variant C11A U45A U56A, the “self-cleavage kobs at 2500 uM GlcN6P” value was 9.98e-05 ± 2.9e-05 s⁻¹.
As to A15G A48U U54A, the “self-cleavage kobs at 2500 uM GlcN6P” value was found to be 0.000106 ± 4.2e-05 s⁻¹.
In the case of A12U A33C G41U G62C, the “self-cleavage kobs at 2500 uM GlcN6P” value was below 1e-05 s⁻¹.
With G32A U45G G51C, the “self-cleavage kobs at 2500 uM GlcN6P” value was below 1e-05 s⁻¹.
On to A33U G41U G62U, for which the “self-cleavage kobs at 2500 uM GlcN6P” value is below 1e-05 s⁻¹.
Regarding A14C C58A C67A C68G, the “self-cleavage kobs at 2500 uM GlcN6P” value came to 4.77e-05 ± 1.6e-05 s⁻¹.
The same measure, in the same setting: the result for G7U U54A reads below 1e-05 s⁻¹.
As to C10U A12G G32A A42U, the “self-cleavage kobs at 2500 uM GlcN6P” value was below 1e-05 s⁻¹.
For U30G G41U C50A, the “self-cleavage kobs at 2500 uM GlcN6P” value was below 1e-05 s⁻¹.
Same read-out and setting: the result for U57A C58A C70G reads 0.000143 ± 3.9e-05 s⁻¹; that for C10G A42C U45G, below 1e-05 s⁻¹.
Still for that read-out and setting: the result for C10G A14C U30G G43A reads below 1e-05 s⁻¹.

In the next data set the parent is B1. Briefly: self-cleavage kobs at 10000 uM GlcN6P; higher = faster cleavage; RNA array. The conditions noted are these: with glucosamine-6-phosphate. In short, it runs like this:
as §1
Turning to A6C G9U A52G, the “self-cleavage kobs at 10000 uM GlcN6P” value is below 1e-05 s⁻¹.
The same measure, in the same setting: the result for G13U U56C G62U reads below 1e-05 s⁻¹; that for U30G A39G G41U A48G U69C, below 1e-05 s⁻¹; that for G35A C50U, 4.87e-05 ± 8e-06 s⁻¹.
For A14C G32C C71U, the “self-cleavage kobs at 10000 uM GlcN6P” value came out at 0.000332 ± 7.4e-05 s⁻¹.
Consider G7U U54A, for which the “self-cleavage kobs at 10000 uM GlcN6P” value is below 1e-05 s⁻¹.
